The values below come from article PMC6096048, “The Cytochrome bd Complex Is Essential for Chromate and Sulfide Resistance and Is Regulated by a GbsR-Type Regulator, CydE, in Alishewanella Sp. WH16-1”.

This data set has as its target T1, CydE (GbsR-type regulator) (Alishewanella sp. WH16-1, UniProt A0ABQ3KUT0 1-187).
T1 sequence: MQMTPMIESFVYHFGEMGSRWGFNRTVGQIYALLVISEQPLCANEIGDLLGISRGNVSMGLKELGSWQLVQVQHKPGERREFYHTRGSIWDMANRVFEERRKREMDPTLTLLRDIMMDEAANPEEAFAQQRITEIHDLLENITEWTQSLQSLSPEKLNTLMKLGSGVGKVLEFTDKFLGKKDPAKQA
The experiment in a line: EMSA; ethidium bromide stain; EMSA: 20 uL with 2 uL 10x binding buffer (listed as 10 mM Tris pH 7.5, 10 mM EDTA, 1 mM KCl, 1 mM DTT, 50% glycerol, 0.1 mg/mL BSA), 37 C 30 min, 8% native PAGE in 0.5x TGE pH 8.0; footprinting: same mix, DNase I 10 min at room temperature. To be noted: protein: recombinant; tags: His6 (pET28a); chain copies: 2; (synthesized). On the technique in general: Mobility shift assays separate free from complexed probe on a gel.

B1: CydE binding site 1 (dsDNA)
DNA 1: TATTTCAGAAATTTCTGAAAGTTCA
DNA 2: TGAACTTTCAGAAATTTCTGAAATA
With B1, the binding result is given as “binds”.

B2: CydE binding site 2 (dsDNA)
DNA 1: GGGATGCGCATATGCAAAT
DNA 2: ATTTGCATATGCGCATCCC
For B2, the binding result is “binds”.
